This is an account of results in paper PMC5487381, “Thioredoxin A Is Essential for Motility and Contributes to Host Infection of Listeria monocytogenes via Redox Interactions” (Frontiers in Cellular and Infection Microbiology, 2017).

This experiment has as its target T1, PrfA, the central virulence regulator of Listeria (Listeria monocytogenes EGD-e, UniProt P22262 1-237).
T1 construct: PrfA, virulence regulator of the Crp/Fnr family, L. monocytogenes EGD-e, full-length ORF; The methods describe the recombinant proteins in general, not PrfA by name
T1 sequence: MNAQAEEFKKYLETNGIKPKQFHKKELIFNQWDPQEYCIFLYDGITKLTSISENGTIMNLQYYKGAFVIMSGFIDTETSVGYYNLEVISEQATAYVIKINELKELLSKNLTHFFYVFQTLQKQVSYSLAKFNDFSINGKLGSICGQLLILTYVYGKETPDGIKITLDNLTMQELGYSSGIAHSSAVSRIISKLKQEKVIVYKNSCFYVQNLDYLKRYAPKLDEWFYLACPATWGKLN
Put plainly: ITC; TrxA, TrxAox or TrxA active-site mutants (80-200 uM) in the syringe, PrfA, MogR, GmaR or MogR and GmaR (8-20 uM) in the cuvette; 25 C; 25 mM Tris-HCl pH 7.5, 100 mM NaCl; 15 uL injections, 300 s spacing; 1:1 binding model. Particulars: both partners purified.

B1: Listeria monocytogenes thioredoxin A (TrxA) (enzyme, Listeria monocytogenes EGD-e, UniProt P0A4L3 1-103, looked up)
chain: MVKEITDATFEQETSEGLVLTDFWATWCGPCRMVAPVLEEIQEERGEALKIVKMDVDENPETPGSFGVMSIPTLLIKKDGEVVETIIGYRPKEELDEVINKYV
notes: Thioredoxin A (TrxA, Lmo1233) of L. monocytogenes EGD-e, full-length ORF; pET30a(+) may add further vector-encoded residues between the His tag and the ORF; also called Lmo1233
In the case of B1, the binding result is given as “binds”.
